{"source": "patent US6713610", "binders": {"B1": {"name": "I8K4.2 (antibody, V domains shown)", "VH": "SLTCAVYGGSFSGYYWTWIRQPPGKGLEWIGEIIHHGNTNYNPSLKSRVSISVDTSKNQFSLTLSSVTAADTAVYYCARGGAVAAFDYWGQGTLVTVSS", "VL": "TQSPSSLSASVGDRVTITCQASQDISNYLNWYQQKAGKAPKVLIYAASNLEAGVPSRFSGSGSGTDFTFTISSLQPEDIATYYCQHYDNLLTFGGGTKVEIKR"}}, "key": {"human recombinant IL-8 [1]": {"biological_target": "T1, human recombinant IL-8 (human, UniProt P10145 28-99)", "T1 construct": "also called hIL8; h-IL-8", "T1 sequence (looked up)": "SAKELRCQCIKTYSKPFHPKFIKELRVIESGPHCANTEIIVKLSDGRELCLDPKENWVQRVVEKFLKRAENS", "test": "BIAcore SPR, IL-8 immobilized (81 RU surface), hybridoma supernatant as analyte"}, "human recombinant IL-8 [2]": {"biological_target": "T1, human recombinant IL-8", "test": "BIAcore SPR, IL-8 immobilized (134 RU surface), hybridoma supernatant as analyte"}}, "data": [{"binder": "B1", "values": [{"measurement": "Kd", "setting": "human recombinant IL-8 [1]", "value": 0.142, "unit": "nM"}, {"measurement": "koff", "setting": "human recombinant IL-8 [1]", "value": 0.000817, "unit": "s⁻¹"}, {"measurement": "kon", "setting": "human recombinant IL-8 [1]", "value": "5.76e+06", "unit": "M⁻¹ s⁻¹"}, {"measurement": "Kd", "setting": "human recombinant IL-8 [2]", "value": 0.196, "unit": "nM"}, {"measurement": "koff", "setting": "human recombinant IL-8 [2]", "value": 0.000384, "unit": "s⁻¹"}, {"measurement": "kon", "setting": "human recombinant IL-8 [2]", "value": "1.95e+06", "unit": "M⁻¹ s⁻¹"}]}]}
